Literature values, collected in paper PMC5031454.

Biological target: Dscam1 Ig1-4 (Drosophila melanogaster) (UniProt Q0E9H9)
Chain of UniProt Q0E9H9 (Q0E9H9 39-421): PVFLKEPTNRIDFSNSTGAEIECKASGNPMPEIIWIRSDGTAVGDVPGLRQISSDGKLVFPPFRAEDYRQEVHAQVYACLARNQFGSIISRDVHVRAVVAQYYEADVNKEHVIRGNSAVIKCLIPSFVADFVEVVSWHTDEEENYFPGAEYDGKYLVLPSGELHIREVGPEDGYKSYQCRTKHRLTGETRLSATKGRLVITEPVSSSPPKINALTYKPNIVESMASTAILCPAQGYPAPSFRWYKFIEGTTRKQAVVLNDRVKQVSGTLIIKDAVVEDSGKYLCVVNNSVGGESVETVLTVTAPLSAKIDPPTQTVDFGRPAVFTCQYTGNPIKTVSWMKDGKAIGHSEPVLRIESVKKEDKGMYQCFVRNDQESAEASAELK

Slit-N N-terminal fragment (from UniProt P24014)
Kd: 22 nM
